Laboratory results: PMC4511217 (Genes & Development, 2015)

T1: Rsa4 ribosome assembly factor within Alb1-TAP purified pre-60S particles (yeast (endogenous in pre-60S particles), UniProt P25382 1-515)
T1 sequence: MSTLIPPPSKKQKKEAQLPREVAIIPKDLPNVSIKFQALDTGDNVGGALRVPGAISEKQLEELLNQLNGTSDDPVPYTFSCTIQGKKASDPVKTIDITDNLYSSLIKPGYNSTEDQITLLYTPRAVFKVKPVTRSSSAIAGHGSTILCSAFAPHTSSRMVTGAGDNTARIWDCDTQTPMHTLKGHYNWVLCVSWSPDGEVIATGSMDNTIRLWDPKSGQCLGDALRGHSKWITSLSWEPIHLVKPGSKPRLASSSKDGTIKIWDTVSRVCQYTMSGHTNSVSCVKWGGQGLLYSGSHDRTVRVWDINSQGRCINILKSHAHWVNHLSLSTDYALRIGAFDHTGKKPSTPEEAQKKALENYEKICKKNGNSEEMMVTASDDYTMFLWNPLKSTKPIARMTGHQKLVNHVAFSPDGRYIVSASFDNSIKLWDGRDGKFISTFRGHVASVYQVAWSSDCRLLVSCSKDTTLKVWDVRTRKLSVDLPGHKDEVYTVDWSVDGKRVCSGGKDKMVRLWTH

T2: Rpf2, full-length, N-terminal 6xHis-tagged (Saccharomyces cerevisiae) (Saccharomyces cerevisiae, UniProt P36160 1-344)
T2 sequence: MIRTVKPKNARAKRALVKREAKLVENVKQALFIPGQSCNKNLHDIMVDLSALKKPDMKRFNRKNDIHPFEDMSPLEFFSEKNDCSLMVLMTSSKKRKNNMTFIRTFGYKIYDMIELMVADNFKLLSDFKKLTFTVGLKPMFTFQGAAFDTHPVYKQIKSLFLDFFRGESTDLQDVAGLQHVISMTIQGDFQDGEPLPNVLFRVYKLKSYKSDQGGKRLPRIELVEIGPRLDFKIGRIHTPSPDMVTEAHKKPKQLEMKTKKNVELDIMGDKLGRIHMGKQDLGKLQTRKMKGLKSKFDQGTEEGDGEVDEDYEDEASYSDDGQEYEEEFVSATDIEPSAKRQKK

B1: Rpl5 (uL18) within Alb1-TAP purified pre-60S particles (natural protein)
chain: MAFQKDAKSSAYSSRFQTPFRRRREGKTDYYQRKRLVTQHKAKYNTPKYRLVVRFTNKDIICQIISSTITGDVVLAAAYSHELPRYGITHGLTNWAAAYATGLLIARRTLQKLGLDETYKGVEEVEGEYELTEAVEDGPRPFKVFLDIGLQRTTTGARVFGALKGASDGGLYVPHSENRFPGWDFETEEIDPELLRSYIFGGHVSQYMEELADDDEERFSELFKGYLADDIDADSLEDIYTSAHEAIRADPAFKPTEKKFTKEQYAAESKKYRQTKLSKEERAARVAAKIAALAGQQ
B2: Rpf2 within Alb1-TAP purified pre-60S particles (natural protein)
chain: T2 sequence
B3: Rrs1, full-length (Saccharomyces cerevisiae) (natural protein)
chain: MSAEDYKNLPVTVEKPIPVVYDLGNLAAFDSNVLDKNDLDSSNARREEKIKSLTRDNVQLLINQLLSLPMKTTTESVGGTGGQSSVMTLLQLPDPTTDLPREKPLPKAKAMTKWEKFAAKKGIKPKERAGKMIYDEASGEWVPKWGYKGANKKLDDQWLVEVDDKVKGTDNELIDPRTLNRAERKRLVKKNEKQQRRNMKNAL
B4: Rrs1 within Alb1-TAP purified pre-60S particles (natural protein)
chain: B3 chain

How the values were obtained:
[1] = biological target: B2; experiment: cryo-EM structure
[2] = biological target: T1, Rsa4 ribosome assembly factor within …; experiment: cryo-EM structure
[3] = biological target: T2, Rpf2, full-length, N-terminal …; experiment: SEC + other: SAXS
[4] = biological target: B1; experiment: cryo-EM structure

B1
binding result [1]: binds

B2
binding result [2]: binds

B3
stoichiometry N [3]: 1

B4
binding result [2]: binds
binding result [4]: binds
